Entries after “also recorded” stand apart in the source; their conditions may differ.
B1: PNGase K50A, Y51A double mutant: PNGase double mutant (protein, UniProt Q96IV0 2-654, looked up, variant K50A Y51A)
Peptide-N(4)-(N-acetyl-beta-gl …: AAAALGSSSGSASPAVAELCQNTPETFLEASKLLLTYADNILRNPNDEAARSIRIGNTAFSTRLLPVRGAVECLFEMGFEEGETHLIFPKKASVEQLQKIRDLIAIERSSRLDGSNKSHKVKSSQQPAASTQLPTTPSSNPSGLNQHTRNRQGQSSDPPSASTVAADSAILEVLQSNIQHVLVYENPALQEKALACIPVQELKRKSQEKLSRARKLDKGINISDEDFLLLELLHWFKEEFFHWVNNVLCSKCGGQTRSRDRSLLPSDDELKWGAKEVEDHYCDACQFSNRFPRYNNPEKLLETRCGRCGEWANCFTLCCRAVGFEARYVWDYTDHVWTEVYSPSQQRWLHCDACEDVCDKPLLYEIGWGKKLSYVIAFSKDEVVDVTWRYSCKHEEVIARRTKVKEALLRDTINGLNKQRQLFLSENRRKELLQRIIVELVEFISPKTPKPGELGGRISGSVAWRVARGEMGLQRKETLFIPCENEKISKQLHLCYNIVKDRYVRVSNNNQTISGWENGVWKMESIFRKVETDWHMVYLARKEGSSFAYISWKFECGSVGLKVDSISIRTSSQTFQTGTVEWKLRSDTAQVELTGDNSLHSYADFSGATEVILEAELSRGDGDVAWQHTQLFRQSLNDHEENCLEIIIKFSDL
B2: N201D: UBXD1-PUB point mutant (protein)
chain: STDPVAASIMKIYTFNKDQDRVKLGVDTIAKYLDNIHLHPEEEKYRKIKLQDKVFQERINCLEGTHEFFEAIGFQKVLLPAQDQEDPEEFYVLSETTLAQPQSLERHKEQLLAAE
modifications: left off: His6, N-terminal, cleaved
notes: UBXD1-PUB point mutant
B3: Y181A: UBXD1-PUB point mutant (protein)
chain: STDPVAASIMKIYTFNKDQDRVKLGVDTIAKALDNIHLHPEEEKYRKIKLQNKVFQERINCLEGTHEFFEAIGFQKVLLPAQDQEDPEEFYVLSETTLAQPQSLERHKEQLLAAE
modifications: left off: His6, N-terminal, cleaved
notes: UBXD1-PUB point mutant
B4: N184A: UBXD1-PUB point mutant (protein)
chain: STDPVAASIMKIYTFNKDQDRVKLGVDTIAKYLDAIHLHPEEEKYRKIKLQNKVFQERINCLEGTHEFFEAIGFQKVLLPAQDQEDPEEFYVLSETTLAQPQSLERHKEQLLAAE
modifications: left off: His6, N-terminal, cleaved
notes: UBXD1-PUB point mutant
B5: K198E: UBXD1-PUB point mutant (protein)
chain: STDPVAASIMKIYTFNKDQDRVKLGVDTIAKYLDNIHLHPEEEKYRKIELQNKVFQERINCLEGTHEFFEAIGFQKVLLPAQDQEDPEEFYVLSETTLAQPQSLERHKEQLLAAE
modifications: left off: His6, N-terminal, cleaved
notes: UBXD1-PUB point mutant
B6: N184D: UBXD1-PUB point mutant (protein)
chain: STDPVAASIMKIYTFNKDQDRVKLGVDTIAKYLDDIHLHPEEEKYRKIKLQNKVFQERINCLEGTHEFFEAIGFQKVLLPAQDQEDPEEFYVLSETTLAQPQSLERHKEQLLAAE
modifications: left off: His6, N-terminal, cleaved
notes: UBXD1-PUB point mutant
B7: wild type (wt): N-terminal hexahistidine-tagged UBXD1-PUB (150–264), tag cleaved with thrombin (protein)
chain: STDPVAASIMKIYTFNKDQDRVKLGVDTIAKYLDNIHLHPEEEKYRKIKLQNKVFQERINCLEGTHEFFEAIGFQKVLLPAQDQEDPEEFYVLSETTLAQPQSLERHKEQLLAAE
modifications: left off: His6, N-terminal, cleaved
notes: N-terminal hexahistidine-tagged UBXD1-PUB (150–264), tag cleaved with thrombin
B8: Q200A: UBXD1-PUB point mutant (protein)
chain: STDPVAASIMKIYTFNKDQDRVKLGVDTIAKYLDNIHLHPEEEKYRKIKLANKVFQERINCLEGTHEFFEAIGFQKVLLPAQDQEDPEEFYVLSETTLAQPQSLERHKEQLLAAE
modifications: left off: His6, N-terminal, cleaved
notes: UBXD1-PUB point mutant
B9: E206R: UBXD1-PUB point mutant (protein)
chain: STDPVAASIMKIYTFNKDQDRVKLGVDTIAKYLDNIHLHPEEEKYRKIKLQNKVFQRRINCLEGTHEFFEAIGFQKVLLPAQDQEDPEEFYVLSETTLAQPQSLERHKEQLLAAE
modifications: left off: His6, N-terminal, cleaved
notes: UBXD1-PUB point mutant
B10: Y181F: UBXD1-PUB point mutant (protein)
chain: STDPVAASIMKIYTFNKDQDRVKLGVDTIAKFLDNIHLHPEEEKYRKIKLQNKVFQERINCLEGTHEFFEAIGFQKVLLPAQDQEDPEEFYVLSETTLAQPQSLERHKEQLLAAE
modifications: left off: His6, N-terminal, cleaved
notes: UBXD1-PUB point mutant
B11: Y194F: UBXD1-PUB point mutant (protein)
chain: STDPVAASIMKIYTFNKDQDRVKLGVDTIAKYLDNIHLHPEEEKFRKIKLQNKVFQERINCLEGTHEFFEAIGFQKVLLPAQDQEDPEEFYVLSETTLAQPQSLERHKEQLLAAE
modifications: left off: His6, N-terminal, cleaved
notes: UBXD1-PUB point mutant
B12: N201A: UBXD1-PUB point mutant (protein)
chain: STDPVAASIMKIYTFNKDQDRVKLGVDTIAKYLDNIHLHPEEEKYRKIKLQAKVFQERINCLEGTHEFFEAIGFQKVLLPAQDQEDPEEFYVLSETTLAQPQSLERHKEQLLAAE
modifications: left off: His6, N-terminal, cleaved
notes: UBXD1-PUB point mutant
B13: R207E: UBXD1-PUB point mutant (protein)
chain: STDPVAASIMKIYTFNKDQDRVKLGVDTIAKYLDNIHLHPEEEKYRKIKLQNKVFQEEINCLEGTHEFFEAIGFQKVLLPAQDQEDPEEFYVLSETTLAQPQSLERHKEQLLAAE
modifications: left off: His6, N-terminal, cleaved
notes: UBXD1-PUB point mutant
B14: Y194A: UBXD1-PUB point mutant (protein)
chain: STDPVAASIMKIYTFNKDQDRVKLGVDTIAKYLDNIHLHPEEEKARKIKLQNKVFQERINCLEGTHEFFEAIGFQKVLLPAQDQEDPEEFYVLSETTLAQPQSLERHKEQLLAAE
modifications: left off: His6, N-terminal, cleaved
notes: UBXD1-PUB point mutant
B15: K193E: UBXD1-PUB point mutant (protein)
chain: STDPVAASIMKIYTFNKDQDRVKLGVDTIAKYLDNIHLHPEEEEYRKIKLQNKVFQERINCLEGTHEFFEAIGFQKVLLPAQDQEDPEEFYVLSETTLAQPQSLERHKEQLLAAE
modifications: left off: His6, N-terminal, cleaved
notes: UBXD1-PUB point mutant
B16: V203A: UBXD1-PUB point mutant (protein)
chain: STDPVAASIMKIYTFNKDQDRVKLGVDTIAKYLDNIHLHPEEEKYRKIKLQNKAFQERINCLEGTHEFFEAIGFQKVLLPAQDQEDPEEFYVLSETTLAQPQSLERHKEQLLAAE
modifications: left off: His6, N-terminal, cleaved
notes: UBXD1-PUB point mutant

Assays:
p97 = settings: qualitative pulldown; ref [29]; cited from earlier work
Source text: The PIM binding pockets of UBXD1-PUB and its closest homologue PNGase-PUB and the position of the p97-PIM peptide inside the pocket are almost identical, with small differences (Figure 6 and Figure 7). The side chains of the conserved UBXD1-Y181 and PNGase-Y38 are in the same position, stacking with p97-Y805 and forming a putative H-bond (3.2 or 3.1 Å, respectively) to the backbone carbonyl of p97-L804. UBDXD1-Y194 and PNGase-Y51, which represent the second conserved tyrosine of the PIM pocket, both stack with p97-Y805 and are only slightly shifted with respect to each other. However, the intr ...

p97-C10 peptide = assay: Fluorescence anisotropy, UBXD1-PUB constructs titrated to 5,6-FAM labeled p97-C10 peptide; type: binding; settings: for Kd: UBXD1-PUB (150–264) mutants titrated to 5,6-FAM labeled p97-C10 peptide (100 nM), 50 mM NaKPi, pH 6.5, 25 °C, fluorescence anisotropy ex 495/em 518 nm, fit of averaged triplicates ± standard deviation of the fit; for change in p97 binding affinity versus wild type, in words / fold change in KD / affinity versus wild type: UBXD1-PUB mutant vs wt, p97-C10, fluorescence anisotropy
Source text: N-terminal hexahistidine-tagged UBXD1-PUB (150–264) was cloned into a pET28a expression vector using the NdeI and HindIII restriction sites. UBXD1 point mutants were produced by site-directed mutagenesis following the Quikchange protocol (Agilent Technologies).
Unlabeled p97-C10 ([…]), p97-C13 ([…]), and phosphorylated p97-C13 ([…]pYG) peptides for NMR and ITC as well as 5,6-FAM-labeled peptides for fluorescence studies were purchased from Caslo ApS (Denmark).
(§1) Fluorescence anisotropy measurements (excitation: 495 nm; emission 518 nm) were carried out on a JASCO FP-8300 fluorescence spectrometer in 50 mM NaKPi, pH 6.5 at 25 °C, titrating PUB constructs to 5,6-FAM labeled p97-C10 peptide (100 nM). All titrations were performed in triplicate. Binding curves of the averaged data were fitted with GraphPad Prism 5.0 (GraphPad) using the quadratic binding equation for a one-site specific binding model:(3) r=r0+rmax⋅(F+x+KD)−(F+x+KD)^2−4⋅x⋅F/2⋅F, with r = anisotropy, r0 = anisotropy without protein, rmax = maximum anisotropy, F = fluorescent probe (labeled peptide or protein) concentration, x = titrant protein concentration, and KD = dissociation constant.
(§2) Data points are shown as means ± standard deviation based on the three experiments. KD values are given as fit of the averaged data points ± standard deviation of the fit.

full-length p97 (p97-fl) = assay: Fluorescence anisotropy, UBXD1-PUB with full-length p97; type: binding; settings: isolated PUB domain of UBXD1
Description: as §1, §2

[1] = CD spectroscopy, secondary structure composition; type: physicochemical; settings: 0.15 mg/mL protein, 50 mM NaKPi pH 6.5, 25 °C; for α-helical content: 25 scans averaged, DichroWeb CDSSTR
Description: CD spectra were recorded on a Jasco J-170 CD spectrometer in a 1 mm quartz cuvette at 25 °C averaging 25 scans. Samples consisted of 0.15 mg/mL protein in 50 mM NaKPi, pH 6.5. The secondary structure composition was analyzed using DichroWeb (http://dichroweb.cryst.bbk.ac.uk) employing the CDSSTR algorithm.

Row | Molecule | Kd (p97-C10 peptide) [µM] | change in p97 binding affinity versus wild type, in words (p97-C10 peptide) | further results
1 | B1 | – | – | binding in pulldown assay (p97): did not show impaired binding
2 | B2 | 280 ± 3 | largest decrease in binding affinity | –
3 | B3 | 111 ± 2 | largest decrease in binding affinity | –
4 | B4 | 28.7 ± 0.5 | – | –
5 | B5 | 49.3 ± 0.8 | – | –
6 | B6 | 80 ± 2 | – | –
7 | B7 | 13.8 ± 0.3 | – | affinity for full-length p97 relative to isolated PIM peptides (full-length p97 (p97-fl)): same range as for the isolated PIM peptides; α-helical content [1]: 80%
8 | B8 | 8.3 ± 0.3 | do not show a decreased affinity | –
9 | B9 | 39.4 ± 0.9 | – | –
10 | B10 | 28.4 ± 0.6 | – | –
11 | B11 | 141 ± 2 | largest decrease in binding affinity; also recorded: large decrease in affinity | α-helical content [1]: 50%
12 | B12 | 64.1 ± 0.8 | – | fold change in KD / affinity versus wild type (p97-C10 peptide): 5 fold
13 | B13 | 88 ± 1 | – | fold change in KD / affinity versus wild type (p97-C10 peptide): six; fold change in KD / affinity versus wild type (p97-C10 peptide; listed as R207 to E): 6 fold
14 | B14 | 53 ± 2 | large decrease in affinity | α-helical content [1]: 30%; folding / secondary structure, in words ([1]; compared with wild type): partial loss of secondary structure
15 | B15 | 17.7 ± 0.4 | do not show a decreased affinity | –
16 | B16 | 25.3 ± 0.5 | – | –

Reference: publication PMC6995525, “Structure of the PUB Domain from Ubiquitin Regulatory X Domain Protein 1 (UBXD1) and Its Interaction with the p97 AAA+ ATPase” (Biomolecules, 2019)
